Key:
MS2 coat protein [1] = experiment: apparent KD of MS2 coat protein, switch ON state; designed switch direction (-1 OFF switch, 1 ON switch): -1; higher = weaker reporter binding; conditions: FMN input: 0 or 200 uM; Eterna round: R93 (includes R88 designs)
Summary of the method: (§1)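 Binding of SNAP-549-labelled MS2 coat protein was measured on designed RNA switches transcribed on-chip from Illumina sequencing clusters. The protein rose in twofold steps from 0.7 or 1.5 nM to 3 µM, with 0.8–1.5 h per step early on and 10–20 min per step later, in 100 mM Tris-HCl pH 7.5, 80 mM KCl, 4 mM MgCl2, without or with constant ligand. Each design's apparent KD is the median of fits to its normalised cluster binding curves.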

MS2 coat protein [2] = experiment: apparent KD of MS2 coat protein, switch OFF state (with FMN for OFF switches, without FMN for ON switches); designed switch direction (-1 OFF switch, 1 ON switch): -1; higher = weaker reporter binding; conditions: FMN input: 0 or 200 uM; Eterna round: R93 (includes R88 designs)
Summary of the method: as §1

MS2 coat protein [3] = experiment: apparent KD of MS2 coat protein; higher = weaker reporter binding; conditions: Eterna round: R107
Summary of the method: as §1

[4] = input ligand: theophylline 20 uM

Sequence: AAAAAACAUGAGGAUCACCCAUGUAAGGAUAUGCGAUGGAAAAUAAAAAUAAAACAUAGCAGAAGGUACACCAA [Amethyst 82]
- apparent KD of MS2 coat protein (MS2 coat protein [1]): 0.0294 µM
- apparent KD of MS2 coat protein (MS2 coat protein [2]): 0.0282 µM

Sequence: AAAAAACAUGAGGAUCACCCAUGUAAGGAUAUGCUCAAGCGAAAAAGCACAAAAAAGAGCAGAAGGUACAAAAA [66%, Wbt, 41]
- apparent KD of MS2 coat protein (MS2 coat protein [1]): 0.0226 µM
- apparent KD of MS2 coat protein (MS2 coat protein [2]): 0.031 µM

Sequence: AAAAAACAUGAGGAUCACCCAUGUCAGGAUAUACAAAAAUAAAUAAAAAUAAAAUAAAGUAGAAGGGACAAAAA [May 9]
- apparent KD of MS2 coat protein (MS2 coat protein [1]): 0.0289 µM
- apparent KD of MS2 coat protein (MS2 coat protein [2]): 0.0369 µM

Sequence: AAAAAACAUGAGGAUCACCCAUGUCAGGAUAUGCUCAGCAAAAAAAAAAAAAAGAACGGUAGAAGGGACAGAAA [Bilbo Confounded 22 - Jieux - Exclusion 1]
- apparent KD of MS2 coat protein (MS2 coat protein [1]): 0.0561 µM
- apparent KD of MS2 coat protein (MS2 coat protein [2]): 0.0507 µM

Sequence: AAAAAACAUGAGGAUCACCCAUGUGAGGAUAUAGGAAAAAAAAAAAAAAAAAAAAAAACUAGAAGGCACAAAAA [Gess I got it^^]
- apparent KD of MS2 coat protein (MS2 coat protein [1]): 0.0352 µM
- apparent KD of MS2 coat protein (MS2 coat protein [2]): 0.0417 µM

Sequence: AAAAAACAUGAGGAUCACCCAUGUGAGGAUAUCAAAUAAAGGCACAUGAGAAGGCAUAUGAGAAGGCACAUGAA [Meechl MS2 Ex1 2]
- apparent KD of MS2 coat protein (MS2 coat protein [1]): 0.0414 µM

Sequence: AAAAAACAUGAGGAUCACCCAUGUGAGGAUAUCGAGAAGAAGAAGAAGAAGAAGAGAACGAGAAGGCACAAAAA [Exclusion 1 - G's]
- apparent KD of MS2 coat protein (MS2 coat protein [1]): 0.0258 µM
- apparent KD of MS2 coat protein (MS2 coat protein [2]): 0.0299 µM

Sequence: AAAAAACAUGAGGAUCACCCAUGUGAGGAUAUGCAAAACCCAUAUAAAAAGGGAAAAAGCAGAAGGCGCAAAAA [Starry Exclusion 1.4 (wbt round 1 mod)]
- apparent KD of MS2 coat protein (MS2 coat protein [1]): 0.0265 µM
- apparent KD of MS2 coat protein (MS2 coat protein [2]): 0.0242 µM

Sequence: AAAAAACAUGAGGAUCACCCAUGUGAGGAUAUGCAAAACCCAUAUAAAAAGGGAAAAAGUAGAAGGCACAAAAA [wbt round 1 mod 10]
- apparent KD of MS2 coat protein (MS2 coat protein [1]): 0.0241 µM
- apparent KD of MS2 coat protein (MS2 coat protein [2]): 0.0286 µM

Sequence: AAAAAACAUGAGGAUCACCCAUGUGAGGAUAUGCAAAACUUAUAUAAAAAGGGAAAAAGUAGAAGGCACAAAAA [LROPPY Exclusion 1 - v09_water mod]
- apparent KD of MS2 coat protein (MS2 coat protein [1]): 0.0304 µM
- apparent KD of MS2 coat protein (MS2 coat protein [2]): 0.0392 µM

Sequence: AAAAAACAUGAGGAUCACCCAUGUGAGGAUAUGCGAAAAAAAAAAUAAAAAAAAAAAAGCAGAAGGCACAAAAA [LROPPY Exclusion 1 - v05_deltaG=1.64]
- apparent KD of MS2 coat protein (MS2 coat protein [1]): 0.0376 µM
- apparent KD of MS2 coat protein (MS2 coat protein [2]): 0.0585 µM

Sequence: AAAAAACAUGAGGAUCACCCAUGUGAGGAUAUGCGAAAAAAAAAAUAAAAAAAAAAAAGUAGAAGGCACACCAA [Mat - Exclusion 1 - Eli mod - D55]
- apparent KD of MS2 coat protein (MS2 coat protein [1]): 0.0419 µM
- apparent KD of MS2 coat protein (MS2 coat protein [2]): 0.0441 µM

Sequence: AAAAAACAUGAGGAUCACCCAUGUGAGGAUAUGGAAAAAUAAGGACAGUAAAGAUAAACCAGAAGGCACAAAUA [JR_Exc001_Sub1101]
- apparent KD of MS2 coat protein (MS2 coat protein [1]): 0.0264 µM
- apparent KD of MS2 coat protein (MS2 coat protein [2]): 0.0241 µM

Sequence: AAAAAACAUGAGGAUCACCCAUGUGAGGAUAUGUGAAAAAAAAAAUAAAAAAAAAAAAGCAGAAGGUACAAAAA [LROPPY Exclusion 1 - v03_deltaG=3.94]
- apparent KD of MS2 coat protein (MS2 coat protein [1]): 0.0437 µM
- apparent KD of MS2 coat protein (MS2 coat protein [2]): 0.0399 µM

Sequence: AAAAACUGAGGAUAUACAUGAGGAUCACCCAUGUAAAAAAAAAAAAAGGGAAAAAAAAGUAGAAGGCAGAAAAA [Nebiriau II]
- apparent KD of MS2 coat protein (MS2 coat protein [1]): 0.0261 µM
- apparent KD of MS2 coat protein (MS2 coat protein [2]): 0.041 µM

Sequence: AAAAAGCGAGGAUAUACAUGAGGAUCACCCAUGUAAAAGGUCGCGGGAGGGAGGGAAGGUAGAAGGCGCAAAAA [Excls3-VI]
- apparent KD of MS2 coat protein (MS2 coat protein [1]): 0.0154 µM
- apparent KD of MS2 coat protein (MS2 coat protein [2]): 0.0141 µM

Sequence: AAAAAGCGAGGAUAUACAUGAGGAUCACCCAUGUCAAACGGUAAGACCGCAGGAAACAGUAGAAGGCGCAAAAA [Exclusion3-03]
- apparent KD of MS2 coat protein (MS2 coat protein [1]): 0.0583 µM
- apparent KD of MS2 coat protein (MS2 coat protein [2]): 0.0911 µM

Sequence: AAAAAGGCAGGAUAUACGAGUCAAAGAAAAGACAAAAGGAAACAUGAGGAUCACCCAUGUAGAAGGGCCAAAAA [Fiskers exclusion D2 62% 6]
- apparent KD of MS2 coat protein (MS2 coat protein [1]): 0.0282 µM
- apparent KD of MS2 coat protein (MS2 coat protein [2]): 0.0167 µM

Sequence: AAAAAGGGAGGAUAUACAUGAGGAUCACCCAUGUAUCAGACGAAAAAGAGUCUGAAAAGUAGAAGGCCCAAAAA [65%, Moding Exclusion3-cac2, 6]
- apparent KD of MS2 coat protein (MS2 coat protein [1]): 0.0155 µM
- apparent KD of MS2 coat protein (MS2 coat protein [2]): 0.0208 µM

Sequence: AAAAAGGGAGGAUAUACAUGAGGAUCACCCAUGUGAAAGACGAAAAAGAGUCUAAAGGGUAGAAGGCCCAAAAA [65%, Moding Exclusion3-cac2, 10]
- apparent KD of MS2 coat protein (MS2 coat protein [1]): 0.0511 µM
- apparent KD of MS2 coat protein (MS2 coat protein [2]): 0.0492 µM

Sequence: AAAAAGUCAGGAUAUACAGAUAAAAAAACGAAAAAAAAUCUGUAGAAGGGACAUGAGGAUCACCCAUGUAAAAA [Ex 4 May 1]
- apparent KD of MS2 coat protein (MS2 coat protein [1]): 0.0618 µM
- apparent KD of MS2 coat protein (MS2 coat protein [2]): 0.0401 µM

Sequence: AAAAAGUGAGGAUAUACAUGAGGAUCACCCAUGUGAAAGUCGAAAAAAAAGACAAGAAGUAGAAGGCACAAAAA [Fiskers Exclusion 3 D2 variant]
- apparent KD of MS2 coat protein (MS2 coat protein [1]): 0.0243 µM
- apparent KD of MS2 coat protein (MS2 coat protein [2]): 0.0293 µM

Sequence: AAAAAGUGAGGAUAUGAAAAUAAAAAAAACAAACAAAUAAAUCAGAAGGCACAUGAGGAUCACCCAUGUAAAAA [JR_Exc004_Sub1202]
- apparent KD of MS2 coat protein (MS2 coat protein [1]): 0.0368 µM
- apparent KD of MS2 coat protein (MS2 coat protein [2]): 0.0262 µM

Sequence: AAAAAGUGAGGAUAUGCAGUGUCCUGUAGACGCGAGCACUUGUAGAAGGCACAUGAGGAUCACCCAUGUUUAAA [EX4 Malc#28]
- apparent KD of MS2 coat protein (MS2 coat protein [1]): 0.024 µM
- apparent KD of MS2 coat protein (MS2 coat protein [2]): 0.0221 µM

Sequence: AAAAAGUGAGGAUAUGGUAAAAAAAAAAAAAAAAAAAACCUCCAGAAGGCACAUGAGGAUCACCCAUGUCAAAA [Jolly's Folly 3 - Jieux - Exclusion 4]
- apparent KD of MS2 coat protein (MS2 coat protein [1]): 0.0447 µM
- apparent KD of MS2 coat protein (MS2 coat protein [2]): 0.019 µM

Sequence: AAAAAUGGAGGAUAUACAUGAGGAUCACCCAUGUGUGACUAUACUAAGCGCUCCUCAGGUAGAAGGCCAAAAAA [Gilly Gone Silly 16 - Jieux - Exclusion 3]
- apparent KD of MS2 coat protein (MS2 coat protein [1]): 0.0835 µM
- apparent KD of MS2 coat protein (MS2 coat protein [2]): 0.0995 µM

Sequence: UUAUAAGUACCGGUCCUCAGAUCCUCAUGACGAGGACCGGUACGGCCGCCACUCGAAACAUGAGGAUCACCCAUGUAAUAAUAUU [Brourdmod07]
- apparent KD of MS2 coat protein (MS2 coat protein [3]; input ligand: arginine 13.2 mM): 0.016 µM
- apparent KD of MS2 coat protein (MS2 coat protein [3]; [4]): 0.0253 µM
- apparent KD of MS2 coat protein (MS2 coat protein [3]; input ligand: theophylline 2 mM): 0.0233 µM

Sequence: UUAUUUAUAAUGGAUACCAGUAUAAUGGCCGCAAAUCCUGACAUGAGGAUCACCCAUGUAUGCCCUUGGCAGCUGUUAUGGGUUU [XTheo B #23]
- apparent KD of MS2 coat protein (MS2 coat protein [3]; input ligand: arginine 13.2 mM): 0.0347 µM
- apparent KD of MS2 coat protein (MS2 coat protein [3]; [4]): 0.0512 µM
- apparent KD of MS2 coat protein (MS2 coat protein [3]; input ligand: tryptophan 2.4 mM): 0.0387 µM
